Several values for one entry are separate records, joined by “and”; a condition that tells them apart may be missing. Equal entries are not always repeated.
B1: 抗H7N9全人源单克隆抗体5Q2 (antibody, V domains shown)
VH: QVQLVESGAEVKKPGASVKVSCKASGYIFTNYDINWVRQATGQGLEWMGWMSPDNGDTGFAQKFQGRVTMTRNTSITTAYMELSSLTSEDTAVYYCATGSADCNGGNCYSWFDPWGQGTLVTVSS
VL: SSELTQDPAVSVALGQTVRITCQGDRVRNYYASWYQQKPGQAPVLVIYGKSNRPSGIPDRFSGSSSGNTASLTITGAQAEDEADYYCSNRDTNGYHVLFGGGTKLTVLV

What was measured:
[1] = target: H7N9病毒的HA蛋白(购自ACROBiosystems) (H7N9 influenza virus); assay: ELISA, HA coated, negative control
[2] = target: H7N9病毒的HA蛋白(购自ACROBiosystems) (H7N9 influenza virus); assay: ELISA, HA coated, supernatant of 293F cells transfected with 5Q2 H and L genes
[3] = target: H7N9病毒 A/Anhui/1/2013 的血凝素HA (on live virus) (influenza A virus A/Anhui/1/2013 (H7N9)); assay: cell-based or functional assay

Molecule	450nm [1]	450nm [2]	中和实验 (微量中和-ELISA, MDCK细胞) IC50 [3]
阴性对照 (ELISA, wells G, H)	0.0675 OD450 and 0.0554 OD450	–	–
B1	–	1.23 OD450 and 0.936 OD450 and 0.723 OD450	5.52 µg/mL

From CN111434684A
